# Experiments:
# [1] = target: T1, Core_NINI-es_KEKK; test: two-hybrid library CCmax; conditions: mean of both orientations;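 further: natural log of median RNA to DNA barcode read ratio; higher means stronger binding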
# T1 chain: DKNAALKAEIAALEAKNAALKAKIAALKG
# [2] = target: T2, Core_INNN-es_KEKK; test: two-hybrid library CCmax; conditions: mean of both orientations;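 further: natural log of median RNA to DNA barcode read ratio; higher means stronger binding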
# T2 chain: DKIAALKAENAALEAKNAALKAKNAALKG
# [3] = target: T3, P6; test: two-hybrid library CC1; conditions: mean of both orientations;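 further: natural log of median RNA to DNA barcode read ratio; higher means stronger binding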
# T3 chain: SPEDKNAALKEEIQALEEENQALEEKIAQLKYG
# [4] = target: T4, P10; test: two-hybrid library CC1;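 further: natural log of median RNA to DNA barcode read ratio; higher means stronger binding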
# T4 chain: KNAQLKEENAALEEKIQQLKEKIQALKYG
# [5] = target: T5, P7mS; test: two-hybrid library CC1; conditions: mean of both orientations
# T5 chain: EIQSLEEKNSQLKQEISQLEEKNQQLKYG
# [6] = target: T6, P9; test: two-hybrid library CC1; conditions: mean of both orientations
# T6 chain: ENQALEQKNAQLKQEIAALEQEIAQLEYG
# [7] = target: T7, P5SC2; test: two-hybrid library CC1; conditions: mean of both orientations
# T7 chain: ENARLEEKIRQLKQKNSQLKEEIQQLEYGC
# [8] = target: T8, P4; test: two-hybrid library CC1; conditions: mean of both orientations
# T8 chain: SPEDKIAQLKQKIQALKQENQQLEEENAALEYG
# [9] = target: T9, P3; test: two-hybrid library CC1; conditions: mean of both orientations
# T9 chain: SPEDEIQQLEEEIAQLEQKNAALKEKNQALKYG
# [10] = target: T10, P6mS; test: two-hybrid library CC1; conditions: mean of both orientations
# T10 chain: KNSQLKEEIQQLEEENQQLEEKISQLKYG
# [11] = target: T11, P5; test: two-hybrid library CC1; conditions: mean of both orientations
# T11 chain: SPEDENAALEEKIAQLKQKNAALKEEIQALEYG
# [12] = target: T12, P8; test: two-hybrid library CC1; conditions: mean of both orientations
# T12 chain: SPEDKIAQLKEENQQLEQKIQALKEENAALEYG
# [13] = target: T13, P5SC1; test: two-hybrid library CC1; conditions: mean of both orientations
# T13 chain: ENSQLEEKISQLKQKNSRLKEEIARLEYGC
# [14] = target: T14, P11; test: two-hybrid library CC1; conditions: mean of both orientations
# T14 chain: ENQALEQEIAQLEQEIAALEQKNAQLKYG
# [15] = target: T15, P12; test: two-hybrid library CC1; conditions: mean of both orientations
# T15 chain: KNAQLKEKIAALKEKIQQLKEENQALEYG
# [16] = target: T16, P7; test: two-hybrid library CC1; conditions: mean of both orientations
# T16 chain: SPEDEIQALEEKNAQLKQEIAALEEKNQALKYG
# [17] = target: T17, P8mS; test: two-hybrid library CC1; conditions: mean of both orientations
# T17 chain: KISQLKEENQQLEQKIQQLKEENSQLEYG
# [18] = target: T18, P4mS; test: two-hybrid library CC1; conditions: mean of both orientations
# T18 chain: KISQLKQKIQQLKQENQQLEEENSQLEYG
# [19] = target: T19, P6SC2; test: two-hybrid library CC1; conditions: mean of both orientations
# T19 chain: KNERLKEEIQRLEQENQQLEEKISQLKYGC
# [20] = target: T20, P3mS; test: two-hybrid library CC1; conditions: mean of both orientations
# T20 chain: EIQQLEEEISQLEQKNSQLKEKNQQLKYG
# [21] = target: T21, P5mS; test: two-hybrid library CC1; conditions: mean of both orientations
# T21 chain: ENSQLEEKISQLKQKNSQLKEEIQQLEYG
# [22] = target: T22, P6SC1; test: two-hybrid library CC1; conditions: mean of both orientations
# T22 chain: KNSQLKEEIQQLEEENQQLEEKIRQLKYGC
# [23] = target: T23, Core_IIII-es_KKEE; test: two-hybrid library CCmax; conditions: mean of both orientations
# T23 chain: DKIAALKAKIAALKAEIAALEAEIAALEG
binder,measurement,setting,value
DENAALEAKIAALKAENAALEAEIAALEG [Core_NINI-es_EKEE],interaction score,[1],2.15
DEIAALEAKNAALKAENAALEAENAALEG [Core_INNN-es_EKEE],interaction score,[2],1.91
KNAQLKEENAALEEKIQQLKEKIQALKYG [P10],interaction score,[3],-1.77
same,interaction score,[4],-2.46
same,interaction score,[5],-2.22
same,interaction score,[6],0.493
same,interaction score,[7],-2.77
same,interaction score,[8],-2.91
same,interaction score,[9],-1.63
same,interaction score,[10],-2.78
same,interaction score,[11],-2.96
same,interaction score,[12],-2.83
same,interaction score,[13],-2.65
same,interaction score,[14],-0.938
same,interaction score,[15],-2.49
same,interaction score,[16],-0.907
same,interaction score,[17],-2.75
same,interaction score,[18],-2.94
same,interaction score,[19],-2.28
same,interaction score,[20],-2.74
same,interaction score,[21],-2.88
same,interaction score,[22],-2.61
DEIAALEAEIAALEAKIAALKAKIAALKG [Core_IIII-es_EEKK],interaction score,[23],1.78

# From PMC10397247
